Target: mouse GDF-8 pro-domain without tag, lacking the signal peptide, released from WT-GDF-8-F in QM-7 cells (mouse) (UniProt O08689)
Assay: cell-based or functional assay

UniProt O08689, sequence (O08689 20-267 limits assumed): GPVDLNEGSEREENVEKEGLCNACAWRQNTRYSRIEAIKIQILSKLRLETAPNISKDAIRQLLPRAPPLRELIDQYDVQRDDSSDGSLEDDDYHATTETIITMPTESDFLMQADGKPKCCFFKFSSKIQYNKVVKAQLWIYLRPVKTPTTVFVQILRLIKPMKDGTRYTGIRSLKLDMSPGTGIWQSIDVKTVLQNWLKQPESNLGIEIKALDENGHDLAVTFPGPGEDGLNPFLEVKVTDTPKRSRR

- luciferase activity of affinity-purified GDF-8 complexes after 1U/ml m-calpain for 2 hours at 37° C, against the untreated control: 2.5 fold
Substance: m-calpain (enzyme)
